This passage reports melting temperature and thermal stability score results from the supplement of paper PMC5998384.

In series [1] the test system is HeLa Kyoto. As to the kind of experiment: melting temperature (median over replicates), in situ; higher = more thermally stable.
The test system of series [2] is HeLa Kyoto. Description: thermal stability score vs G1/S (z-score of summed log2 fold changes over temperatures); higher = more thermally stable than in G1/S.
[3] abbreviates: cell cycle stage: early G1 (4.5 h after nocodazole release).
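For melting temperature (median over replicates), in situ in this document: HeLa Kyoto cells synchronized by double thymidine or nocodazole block, proteins quantified by TMT10plex mass spectrometry, three independent biological replicates.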
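For thermal stability score vs G1/S (z-score of summed log2 fold changes over temperatures) in this document: synchronized HeLa Kyoto cells, proteins quantified by TMT10plex mass spectrometry, three biological replicates, mitosis taken 0.5 h after nocodazole release, G1/S directly after double thymidine block.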

Turning to “MPKNKKRNTPHRGSSAGGGGSGAAAATAATAGGQHRNVQPFSDEDASIETMSHCSGYSDPSSFAEDGPEVLDEEGTQEDLEYKLKGLIDLTLDKSAKTRQAALEGIKNALASKMLYEFILERRMTLTDSIERCLKKGKSDEQRAAAALASVLCIQLGPGIESEEILKTLGPILKKIICDGSASMQARQTCATCFGVCCFIATDDITELYSTLECLENIFTKSYLKEKDTTVICSTPNTVLHISSLLAWTLLLTICPINEVKKKLEMHFHKLPSLLSCDDVNMRIAAGESLALLFELARGIESDFFYEDMESLTQMLRALATDGNKHRAKVDKRKQRSVFRDVLRAVEERDFPTETIKFGPERMYIDCWVKKHTYDTFKEVLGSGMQYHLQSNEFLRNVFELGPPVMLDAATLKTMKISRFERHLYNSAAFKARTKARSKCRDKRADVGEFF [IFRD1]”, the melting temperature in series [1] (cell cycle stage: G1/S) was 56.4 °C. In addition, the thermal stability score in series [2] (setting [3]) was found to be 0.75; in series [2] (cell cycle stage: mitosis), 1.11.

Consider “MDGPVAEHAKQEPFHVVTPLLESWALSQVAGMPVFLKCENVQPSGSFKIRGIGHFCQEMAKKGCRHLVCSSGGNAGIAAAYAARKLGIPATIVLPESTSLQVVQRLQGEGAEVQLTGKVWDEANLRAQELAKRDGWENVPPFDHPLIWKGHASLVQELKAVLRTPPGALVLAVGGGGLLAGVVAGLLEVGWQHVPIIAMETHGAHCFNAAITAGKLVTLPDITSVAKSLGAKTVAARALECMQVCKIHSEVVEDTEAVSAVQQLLDDERMLVEPACGAALAAIYSGLLRRLQAEGCLPPSLTSVVVIVCGGNNINSRELQALKTHLGQV [SDSL]”, for which the melting temperature amounted to 55.1 °C in series [1] (cell cycle stage: G1/S) and 57.9 °C in series [1] (cell cycle stage: mitosis). Also, the thermal stability score was -3.07 in series [2] (setting [3]) and -2.65 in series [2] (cell cycle stage: mitosis).

In the case of “MMKLKSNQTRTYDGDGYKKRAACLCFRSESEEEVLLVSSSRHPDRWIVPGGGMEPEEEPSVAAVREVCEEAGVKGTLGRLVGIFENQERKHRTYVYVLIVTEVLEDWEDSVNIGRKREWFKIEDAIKVLQYHKPVQASYFETLRQGYSANNGTPVVATTYSVSAQSSMSGIR [NUDT3]”, the melting temperature in series [1] (cell cycle stage: G1/S) came out at 53.4 °C; in series [1] (cell cycle stage: mitosis) it was 54.7 °C. For the same sequence, the thermal stability score in series [2] (setting [3]) is -1.86; in series [2] (cell cycle stage: mitosis), -1.36.

Take “MFTSEKGVVEEWLSEFKTLPETSLPNYATNLKDKSSLVSSLYKVIQEPQSELLEPVCHQLFEFYRSGEEQLLQFTLQFLPELIWCYLAVSASRNVHSSGCIEALLLGVYNLEIVDKQGHTKVLSFTIPSLSKPSVYHEPSSIGSMALTESALSQHGLSKVVYSGPHPQREMLTAQNRFEVLTFLLLCYNAALTYMPSVSLQSLCQICSRICVCGYPRQHVRKYKGISSRIPVSSGFMVQMLTGIYFAFYNGEWDLAQKALDDIIYRAQLELYPEPLLVANAIKASLPHGPMKSNKEGTRCIQVEITPTSSRISRNAVTSMSIRGHRWKRHGNTELTGQEELMEISEVDEGFYSRAASSTSQSGLSNSSHNCSNKPSIGKNHRRSGGSKTGGKEKETTGESCKDHFARKQTQRAQSENLELLSLKRLTLTTSQSLPKPSSHGLAKTAATVFSKSFEQVSGVTVPHNPSSAVGCGAGTDANRFSACSLQEEKLIYVSERTELPMKHQSGQQRPPSISITLSTD [FAM126A]”: the melting temperature in series [1] (cell cycle stage: mitosis) stood at 50.9 °C. In addition, the thermal stability score in series [2] (setting [3]) was 0.141; in series [2] (cell cycle stage: mitosis), 0.0377.

On to “METLYRVPFLVLECPNLKLKKPPWLHMPSAMTVYALVVVSYFLITGGIIYDVIVEPPSVGSMTDEHGHQRPVAFLAYRVNGQYIMEGLASSFLFTMGGLGFIILDRSNAPNIPKLNRFLLLFIGFVCVLLSFFMARVFMRMKLPGYLMG [OSTC]”, for which, in series [1] (cell cycle stage: mitosis), the melting temperature came out at 54.8 °C. The thermal stability score in series [2] (setting [3]) was determined as 0.174; in series [2] (cell cycle stage: mitosis) it was 0.407.

In the case of “MEVGGDTAAPAPGGAEDLEDTQFPSEEAREGGGVHAVPPDPEDEGLEETGSKDKDQPPSPSPPPQSEALSSTSRLWSPAAPENSPTCSPESSSGGQGGDPSDEEWRSQRKHVFVLSEAGKPIYSRYGSVEALSATMGVMTALVSFVQSAGDAIRAIYAEDHKLVFLQQGPLLLVAMSRTSQSAAQLRGELLAVHAQIVSTLTRASVARIFAHKQNYDLRRLLAGSERTLDRLLDSMEQDPGALLLGAVRCVPLARPLRDALGALLRRCTAPGLALSVLAVGGRLITAAQERNVLAECRLDPADLQLLLDWVGAPAFAAGEAWAPVCLPRFNPDGFFYAYVARLDAMPVCLLLLGTQREAFHAMAACRRLVEDGMHALGAMRALGEAASFSNASSASAPAYSVQAVGAPGLRHFLYKPLDIPDHHRQLPQFTSPELEAPYSREEERQRLSDLYHRLHARLHSTSRPLRLIYHVAEKETLLAWVTSKFELYTCLSPLVTKAGAILVVTKLLRWVKKEEDRLFIRYPPKYSTPPATSTDQAAHNGLFTGL [MON1B]”, the melting temperature amounted to 52.9 °C in series [1] (cell cycle stage: G1/S) and 52.7 °C in series [1] (cell cycle stage: mitosis). Further, the thermal stability score in series [2] (setting [3]) was -0.93; in series [2] (cell cycle stage: mitosis) it was -0.544.

On to “MAAPAGGGGSAVSVLAPNGRRHTVKVTPSTVLLQVLEDTCRRQDFNPCEYDLKFQRSVLDLSLQWRFANLPNNAKLEMVPASRSREGPENMVRIALQLDDGSRLQDSFCSGQTLWELLSHFPQIRECLQHPGGATPVCVYTRDEVTGEAALRGTTLQSLGLTGGSATIRFVMKCYDPVGKTPGSLGSSASAGQAAASAPLPLESGELSRGDLSRPEDADTSGPCCEHTQEKQSTRAPAAAPFVPFSGGGQRLGGPPGPTRPLTSSSAKLPKSLSSPGGPSKPKKSKSGQDPQQEQEQERERDPQQEQERERPVDREPVDREPVVCHPDLEERLQAWPAELPDEFFELTVDDVRRRLAQLKSERKRLEEAPLVTKAFREAQIKEKLERYPKVALRVLFPDRYVLQGFFRPSETVGDLRDFVRSHLGNPELSFYLFITPPKTVLDDHTQTLFQANLFPAALVHLGAEEPAGVYLEPGLLEHAISPSAADVLVARYMSRAAGSPSPLPAPDPAPKSEPAAEEGALVPPEPIPGTAQPVKRSLGKVPKWLKLPASKR [ASPSCR1]”, for which, in series [1] (cell cycle stage: G1/S), the melting temperature stood at 52.2 °C. The thermal stability score in series [2] (setting [3]) is -0.292; in series [2] (cell cycle stage: mitosis) it was -0.934.

In the case of “MEKWYLMTVVVLIGLTVRWTVSLNSYSGAGKPPMFGDYEAQRHWQEITFNLPVKQWYFNSSDNNLQYWGLDYPPLTAYHSLLCAYVAKFINPDWIALHTSRGYESQAHKLFMRTTVLIADLLIYIPAVVLYCCCLKEISTKKKIANALCILLYPGLILIDYGHFQYNSVSLGFALWGVLGISCDCDLLGSLAFCLAINYKQMELYHALPFFCFLLGKCFKKGLKGKGFVLLVKLACIVVASFVLCWLPFFTEREQTLQVLRRLFPVDRGLFEDKVANIWCSFNVFLKIKDILPRHIQLIMSFCSTFLSLLPACIKLILQPSSKGFKFTLVSCALSFFLFSFQVHEKSILLVSLPVCLVLSEIPFMSTWFLLVSTFSMLPLLLKDELLMPSVVTTMAFFIACVTSFSIFEKTSEEELQLKSFSISVRKYLPCFTFLSRIIQYLFLISVITMVLLTLMTVTLDPPQKLPDLFSVLVCFVSCLNFLFFLVYFNIIIMWDSKSGRNQKKIS [ALG6]”, the melting temperature was 54.2 °C in series [1] (cell cycle stage: G1/S) and 54.3 °C in series [1] (cell cycle stage: mitosis). Also, the values for the thermal stability score in series [2] (setting [3]) and in series [2] (cell cycle stage: mitosis) were 0.428 and -1.17, respectively.
